Experimental data reported in the Immune Epitope Database (IEDB).

Columns and labels:
[1] = target: HLA-A*03:01; experiment: IEDB peptide-MHC binding, purified MHC/direct/fluorescence; filed as Kd, often an IC50 or EC50 that approximates it; ≥ and ≤ were set here for values at or beyond the usual limits of such assays
[2] = target: HLA-B*27:05; experiment: as above
[3] = target: HLA-A*69:01; experiment: as above; settings: source organism: Vibrio cholerae
[4] = target: HLA-A*01:01; experiment: as above
[5] = target: HLA-B*08:01; experiment: as above; settings: source organism: Vibrio vulnificus CMCP6
[6] = target: HLA-B*07:02; experiment: as above
[7] = target: HLA-B*58:01; experiment: as above
[8] = target: HLA-B*57:01; experiment: as above
[9] = target: HLA-A*26:03; experiment: as above; settings: source organism: Vibrio vulnificus CMCP6
[10] = target: HLA-A*68:02; experiment: as above
[11] = target: HLA-A*31:01; experiment: as above
[12] = target: HLA-B*08:03; experiment: as above
[13] = target: HLA-B*15:17; experiment: as above
[14] = target: HLA-B*40:01; experiment: as above
[15] = target: HLA-A*26:02; experiment: as above; settings: source organism: Vibrio vulnificus CMCP6
[16] = target: HLA-B*46:01; experiment: as above
[17] = target: HLA-B*48:01; experiment: as above
[18] = target: HLA-B*15:01; experiment: as above
[19] = target: HLA-A*02:01; experiment: as above
[20] = target: HLA-A*11:01; experiment: IEDB peptide-MHC binding, purified MHC/competitive/fluorescence; ≥ and ≤ were set here for values at or beyond the usual limits of such assays; settings: source organism: Zaire ebolavirus
[21] = target: HLA-A*24:02; experiment: as above; settings: source organism: Zaire ebolavirus
[22] = target: HLA-B*08:01; experiment: as above; settings: source organism: Zaire ebolavirus
[23] = target: HLA-B*07:02; experiment: as above; settings: source organism: Zaire ebolavirus
[24] = target: HLA-B*15:01; experiment: as above; settings: source organism: Zaire ebolavirus
[25] = target: HLA-A*02:01; experiment: as above; settings: source organism: Zaire ebolavirus
[26] = target: HLA-A*11:01; experiment: IEDB peptide-MHC binding, purified MHC/direct/fluorescence; filed as Kd, often an IC50 or EC50 that approximates it; ≥ and ≤ were set here for values at or beyond the usual limits of such assays; settings: source organism: Salmonella enterica
[27] = target: HLA-A*02:11; experiment: as above; settings: source organism: Salmonella enterica subsp. enterica serovar Typhimurium str. LT2
[28] = target: HLA-B*18:01; experiment: as above; settings: source organism: Salmonella enterica
[29] = target: HLA-A*02:19; experiment: as above; settings: source organism: Salmonella enterica subsp. enterica serovar Typhimurium str. LT2
[30] = target: HLA-A*02:06; experiment: IEDB peptide-MHC binding, purified MHC/competitive/fluorescence; filed as Kd, often an IC50 or EC50 that approximates it; ≥ and ≤ were set here for values at or beyond the usual limits of such assays; settings: source organism: Salmonella enterica subsp. enterica serovar Enteritidis
[31] = target: HLA-A*26:02; experiment: as above; settings: source organism: Salmonella enterica subsp. enterica serovar Enteritidis
[32] = source organism: Vibrio cholerae
[33] = source organism: Salmonella enterica

## KGHLPLLDK
[1]; [32]
  Kd: 0.0555 µM
[2]; [32]
  Kd: ≥ 20 µM
[3]
  Kd: ≥ 20 µM
[4]; [32]
  Kd: ≥ 20 µM
[5]
  Kd: ≥ 20 µM
[6]; [32]
  Kd: ≥ 20 µM
[7]; [32]
  Kd: ≥ 20 µM
[8]; [32]
  Kd: ≥ 20 µM
[9]
  Kd: ≥ 20 µM
[10]; [32]
  Kd: ≥ 20 µM
[11]; [32]
  Kd: 3.98 µM
[12]; source organism: Vibrio vulnificus CMCP6
  Kd: ≥ 20 µM
[13]; [32]
  Kd: ≥ 20 µM
[14]; [32]
  Kd: ≥ 20 µM
[15]
  Kd: ≥ 20 µM
[16]; [32]
  Kd: ≥ 20 µM
[17]; [32]
  Kd: ≥ 20 µM
[18]; [32]
  Kd: ≥ 20 µM
[19]; [32]
  Kd: ≥ 20 µM

## TIHHASAPL
[20]
  IC50: ≥ 85 µM
[21]
  IC50: 46.9 µM
[22]
  IC50: ≥ 126 µM
[23]
  IC50: 14.7 µM
[24]
  IC50: 14.4 µM
[25]
  IC50: 5.58 µM

## MGKTITDVK
[26]
  Kd: 0.42 µM
[1]; [33]
  Kd: ≥ 20 µM
[2]; [33]
  Kd: ≥ 20 µM
[27]
  Kd: ≥ 20 µM
[4]; [33]
  Kd: ≥ 20 µM
[6]; [33]
  Kd: ≥ 20 µM
[7]; [33]
  Kd: ≥ 20 µM
[8]; [33]
  Kd: ≥ 20 µM
[10]; [33]
  Kd: ≥ 20 µM
[11]; [33]
  Kd: 1.57 µM
[12]; source organism: Salmonella enterica subsp. enterica serovar Typhimurium str. LT2
  Kd: ≥ 20 µM
[13]; [33]
  Kd: ≥ 20 µM
[14]; [33]
  Kd: ≥ 20 µM
[28]
  Kd: ≥ 20 µM
[16]; [33]
  Kd: ≥ 20 µM
[17]; [33]
  Kd: ≥ 20 µM
[18]; [33]
  Kd: ≥ 20 µM
[29]
  Kd: 6 µM
[19]; [33]
  Kd: ≥ 20 µM
[30]
  Kd: 0.289 µM
[31]
  Kd: 2.74 µM
